From US20220204580A1 (AstraZeneca / MedImmune, published 2022)
Numbered stars: 1 amine (or outer) side, 2 acyl side, 3 side chain; on linkers, the order of the positions; unused ones are H or OH. Bridge positions count the residues as written; N and C are the ends. Square brackets hold non-standard residues; d marks the D form. Side chains are listed from the residue outwards. Ends that are not written are not given here. * marks the point of attachment. C18 diacid = O=C(O)CCCCCCCCCCCCCCCCC(=O)*; γGlu = O=C(O)[C@H](CCC(=O)[*:2])N[*:1]; Aib = CC(C)(N)C(=O)O

B1: Peptide 46 (SEQ ID NO: 46) (peptide)
peptide: K([γGlu-C18 diacid])KCNTATCATQRLAHFLVHSS[Aib]NFGPILPPTNVGSNTY-NH2
modifications: disulfide 3-8; N-terminus assumed
SMILES: CC[C@H](C)[C@H](NC(=O)[C@@H]1CCCN1C(=O)CNC(=O)[C@H](Cc1ccccc1)NC(=O)[C@H](CC(N)=O)NC(=O)C(C)(C)NC(=O)[C@H](CO)NC(=O)[C@H](CO)NC(=O)[C@H](Cc1c[nH]cn1)NC(=O)[C@@H](NC(=O)[C@H](CC(C)C)NC(=O)[C@H](Cc1ccccc1)NC(=O)[C@H](Cc1c[nH]cn1)NC(=O)[C@H](C)NC(=O)[C@H](CC(C)C)NC(=O)[C@H](CCCNC(=N)N)NC(=O)[C@H](CCC(N)=O)NC(=O)[C@@H](NC(=O)[C@H](C)NC(=O)[C@@H]1CSSC[C@H](NC(=O)[C@H](CCCCN)NC(=O)[C@@H](N)CCCCNC(=O)CC[C@H](NC(=O)CCCCCCCCCCCCCCCCC(=O)O)C(=O)O)C(=O)N[C@@H](CC(N)=O)C(=O)N[C@@H]([C@@H](C)O)C(=O)N[C@@H](C)C(=O)N[C@@H]([C@@H](C)O)C(=O)N1)[C@@H](C)O)C(C)C)C(=O)N[C@@H](CC(C)C)C(=O)N1CCC[C@H]1C(=O)N1CCC[C@H]1C(=O)N[C@H](C(=O)N[C@@H](CC(N)=O)C(=O)N[C@H](C(=O)NCC(=O)N[C@@H](CO)C(=O)N[C@@H](CC(N)=O)C(=O)N[C@H](C(=O)N[C@@H](Cc1ccc(O)cc1)C(N)=O)[C@@H](C)O)C(C)C)[C@@H](C)O
B2: Peptide 51 (SEQ ID NO: 51) (peptide)
peptide: K([γGlu-C18 diacid])KCNTATCATQRLANFLSHSS[Aib]NFGPILPPTHVGSNTY-NH2
modifications: disulfide 3-8; N-terminus assumed
SMILES: CC[C@H](C)[C@H](NC(=O)[C@@H]1CCCN1C(=O)CNC(=O)[C@H](Cc1ccccc1)NC(=O)[C@H](CC(N)=O)NC(=O)C(C)(C)NC(=O)[C@H](CO)NC(=O)[C@H](CO)NC(=O)[C@H](Cc1c[nH]cn1)NC(=O)[C@H](CO)NC(=O)[C@H](CC(C)C)NC(=O)[C@H](Cc1ccccc1)NC(=O)[C@H](CC(N)=O)NC(=O)[C@H](C)NC(=O)[C@H](CC(C)C)NC(=O)[C@H](CCCNC(=N)N)NC(=O)[C@H](CCC(N)=O)NC(=O)[C@@H](NC(=O)[C@H](C)NC(=O)[C@@H]1CSSC[C@H](NC(=O)[C@H](CCCCN)NC(=O)[C@@H](N)CCCCNC(=O)CC[C@H](NC(=O)CCCCCCCCCCCCCCCCC(=O)O)C(=O)O)C(=O)N[C@@H](CC(N)=O)C(=O)N[C@@H]([C@@H](C)O)C(=O)N[C@@H](C)C(=O)N[C@@H]([C@@H](C)O)C(=O)N1)[C@@H](C)O)C(=O)N[C@@H](CC(C)C)C(=O)N1CCC[C@H]1C(=O)N1CCC[C@H]1C(=O)N[C@H](C(=O)N[C@@H](Cc1c[nH]cn1)C(=O)N[C@H](C(=O)NCC(=O)N[C@@H](CO)C(=O)N[C@@H](CC(N)=O)C(=O)N[C@H](C(=O)N[C@@H](Cc1ccc(O)cc1)C(N)=O)[C@@H](C)O)C(C)C)[C@@H](C)O
B3: Peptide 49 (SEQ ID NO: 49) (peptide)
peptide: K([γGlu-γGlu-C18 diacid])CNTATCATQRLANFLVHSS[Aib]NFGPILPPTEVGSNTY-NH2
modifications: disulfide 2-7; N-terminus assumed
SMILES: CC[C@H](C)[C@H](NC(=O)[C@@H]1CCCN1C(=O)CNC(=O)[C@H](Cc1ccccc1)NC(=O)[C@H](CC(N)=O)NC(=O)C(C)(C)NC(=O)[C@H](CO)NC(=O)[C@H](CO)NC(=O)[C@H](Cc1c[nH]cn1)NC(=O)[C@@H](NC(=O)[C@H](CC(C)C)NC(=O)[C@H](Cc1ccccc1)NC(=O)[C@H](CC(N)=O)NC(=O)[C@H](C)NC(=O)[C@H](CC(C)C)NC(=O)[C@H](CCCNC(=N)N)NC(=O)[C@H](CCC(N)=O)NC(=O)[C@@H](NC(=O)[C@H](C)NC(=O)[C@@H]1CSSC[C@H](NC(=O)[C@@H](N)CCCCNC(=O)CC[C@H](NC(=O)CC[C@H](NC(=O)CCCCCCCCCCCCCCCCC(=O)O)C(=O)O)C(=O)O)C(=O)N[C@@H](CC(N)=O)C(=O)N[C@@H]([C@@H](C)O)C(=O)N[C@@H](C)C(=O)N[C@@H]([C@@H](C)O)C(=O)N1)[C@@H](C)O)C(C)C)C(=O)N[C@@H](CC(C)C)C(=O)N1CCC[C@H]1C(=O)N1CCC[C@H]1C(=O)N[C@H](C(=O)N[C@@H](CCC(=O)O)C(=O)N[C@H](C(=O)NCC(=O)N[C@@H](CO)C(=O)N[C@@H](CC(N)=O)C(=O)N[C@H](C(=O)N[C@@H](Cc1ccc(O)cc1)C(N)=O)[C@@H](C)O)C(C)C)[C@@H](C)O
B4: Peptide 50 (SEQ ID NO: 50) (peptide)
peptide: K([γGlu-γGlu-C18 diacid])CNTATCATQRLANFLRHSS[Aib]NFGPILPPTEVGSNTY-NH2
modifications: disulfide 2-7; N-terminus assumed
SMILES: CC[C@H](C)[C@H](NC(=O)[C@@H]1CCCN1C(=O)CNC(=O)[C@H](Cc1ccccc1)NC(=O)[C@H](CC(N)=O)NC(=O)C(C)(C)NC(=O)[C@H](CO)NC(=O)[C@H](CO)NC(=O)[C@H](Cc1c[nH]cn1)NC(=O)[C@H](CCCNC(=N)N)NC(=O)[C@H](CC(C)C)NC(=O)[C@H](Cc1ccccc1)NC(=O)[C@H](CC(N)=O)NC(=O)[C@H](C)NC(=O)[C@H](CC(C)C)NC(=O)[C@H](CCCNC(=N)N)NC(=O)[C@H](CCC(N)=O)NC(=O)[C@@H](NC(=O)[C@H](C)NC(=O)[C@@H]1CSSC[C@H](NC(=O)[C@@H](N)CCCCNC(=O)CC[C@H](NC(=O)CC[C@H](NC(=O)CCCCCCCCCCCCCCCCC(=O)O)C(=O)O)C(=O)O)C(=O)N[C@@H](CC(N)=O)C(=O)N[C@@H]([C@@H](C)O)C(=O)N[C@@H](C)C(=O)N[C@@H]([C@@H](C)O)C(=O)N1)[C@@H](C)O)C(=O)N[C@@H](CC(C)C)C(=O)N1CCC[C@H]1C(=O)N1CCC[C@H]1C(=O)N[C@H](C(=O)N[C@@H](CCC(=O)O)C(=O)N[C@H](C(=O)NCC(=O)N[C@@H](CO)C(=O)N[C@@H](CC(N)=O)C(=O)N[C@H](C(=O)N[C@@H](Cc1ccc(O)cc1)C(N)=O)[C@@H](C)O)C(C)C)[C@@H](C)O
B5: Peptide 52 (SEQ ID NO: 52) (peptide)
peptide: K([γGlu-C18 diacid])KCNTATCATQRLANFLSHSS[Aib]NFGPILPPTRVGSNTY-NH2
modifications: disulfide 3-8; N-terminus assumed
SMILES: CC[C@H](C)[C@H](NC(=O)[C@@H]1CCCN1C(=O)CNC(=O)[C@H](Cc1ccccc1)NC(=O)[C@H](CC(N)=O)NC(=O)C(C)(C)NC(=O)[C@H](CO)NC(=O)[C@H](CO)NC(=O)[C@H](Cc1c[nH]cn1)NC(=O)[C@H](CO)NC(=O)[C@H](CC(C)C)NC(=O)[C@H](Cc1ccccc1)NC(=O)[C@H](CC(N)=O)NC(=O)[C@H](C)NC(=O)[C@H](CC(C)C)NC(=O)[C@H](CCCNC(=N)N)NC(=O)[C@H](CCC(N)=O)NC(=O)[C@@H](NC(=O)[C@H](C)NC(=O)[C@@H]1CSSC[C@H](NC(=O)[C@H](CCCCN)NC(=O)[C@@H](N)CCCCNC(=O)CC[C@H](NC(=O)CCCCCCCCCCCCCCCCC(=O)O)C(=O)O)C(=O)N[C@@H](CC(N)=O)C(=O)N[C@@H]([C@@H](C)O)C(=O)N[C@@H](C)C(=O)N[C@@H]([C@@H](C)O)C(=O)N1)[C@@H](C)O)C(=O)N[C@@H](CC(C)C)C(=O)N1CCC[C@H]1C(=O)N1CCC[C@H]1C(=O)N[C@H](C(=O)N[C@@H](CCCNC(=N)N)C(=O)N[C@H](C(=O)NCC(=O)N[C@@H](CO)C(=O)N[C@@H](CC(N)=O)C(=O)N[C@H](C(=O)N[C@@H](Cc1ccc(O)cc1)C(N)=O)[C@@H](C)O)C(C)C)[C@@H](C)O
B6: Peptide 47 (SEQ ID NO: 47) (peptide)
peptide: K([γGlu-C18 diacid])KCNTATCATQRLAHFLVHSS[Aib]NFGPILPPTNVGSETY-NH2
modifications: disulfide 3-8; N-terminus assumed
SMILES: CC[C@H](C)[C@H](NC(=O)[C@@H]1CCCN1C(=O)CNC(=O)[C@H](Cc1ccccc1)NC(=O)[C@H](CC(N)=O)NC(=O)C(C)(C)NC(=O)[C@H](CO)NC(=O)[C@H](CO)NC(=O)[C@H](Cc1c[nH]cn1)NC(=O)[C@@H](NC(=O)[C@H](CC(C)C)NC(=O)[C@H](Cc1ccccc1)NC(=O)[C@H](Cc1c[nH]cn1)NC(=O)[C@H](C)NC(=O)[C@H](CC(C)C)NC(=O)[C@H](CCCNC(=N)N)NC(=O)[C@H](CCC(N)=O)NC(=O)[C@@H](NC(=O)[C@H](C)NC(=O)[C@@H]1CSSC[C@H](NC(=O)[C@H](CCCCN)NC(=O)[C@@H](N)CCCCNC(=O)CC[C@H](NC(=O)CCCCCCCCCCCCCCCCC(=O)O)C(=O)O)C(=O)N[C@@H](CC(N)=O)C(=O)N[C@@H]([C@@H](C)O)C(=O)N[C@@H](C)C(=O)N[C@@H]([C@@H](C)O)C(=O)N1)[C@@H](C)O)C(C)C)C(=O)N[C@@H](CC(C)C)C(=O)N1CCC[C@H]1C(=O)N1CCC[C@H]1C(=O)N[C@H](C(=O)N[C@@H](CC(N)=O)C(=O)N[C@H](C(=O)NCC(=O)N[C@@H](CO)C(=O)N[C@@H](CCC(=O)O)C(=O)N[C@H](C(=O)N[C@@H](Cc1ccc(O)cc1)C(N)=O)[C@@H](C)O)C(C)C)[C@@H](C)O

Columns and labels:
[1] = target: T1, human amylin receptor (calcitonin receptor co-expressed with receptor activity modifying protein, RAMP3) (human, UniProt P30988 25-474; O60896 24-148); experiment: cell-based or functional assay
T1 sequence (looked up) 1: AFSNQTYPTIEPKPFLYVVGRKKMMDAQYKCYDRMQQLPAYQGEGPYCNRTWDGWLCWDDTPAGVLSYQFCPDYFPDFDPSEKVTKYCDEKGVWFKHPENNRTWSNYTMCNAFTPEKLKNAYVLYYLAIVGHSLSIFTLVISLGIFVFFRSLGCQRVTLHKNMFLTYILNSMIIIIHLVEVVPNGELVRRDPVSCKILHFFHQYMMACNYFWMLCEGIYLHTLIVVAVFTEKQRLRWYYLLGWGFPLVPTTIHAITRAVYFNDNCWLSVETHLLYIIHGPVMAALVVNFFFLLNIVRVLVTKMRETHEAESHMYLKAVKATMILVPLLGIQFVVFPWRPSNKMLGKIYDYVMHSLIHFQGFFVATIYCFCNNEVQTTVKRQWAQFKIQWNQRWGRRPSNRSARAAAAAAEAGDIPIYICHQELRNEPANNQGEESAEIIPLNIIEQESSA
T1 sequence (looked up) 2: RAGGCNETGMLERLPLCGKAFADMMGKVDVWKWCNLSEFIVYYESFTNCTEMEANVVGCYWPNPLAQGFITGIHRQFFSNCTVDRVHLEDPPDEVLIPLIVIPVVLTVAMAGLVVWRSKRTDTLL

[2] = target: T2, human calcitonin receptor (human, UniProt P30988 25-474); experiment: cell-based or functional assay
T2 sequence (looked up): T1 sequence (looked up) 1

| EC50 (cAMP production) [1] [nM] | Ratio (EC50 hCTR / EC50 hAMYR3) [1] | EC50 (cAMP production) [2] [nM] | Binder |
| --- | --- | --- | --- |
| 0.109 | 3 | 0.362 | B1 |
| 0.126 | 13 | 1.65 | B2 |
| 0.334 | 12 | 4.14 | B3 |
| 0.349 | 54 | 18.9 | B4 |
| 0.089 | 12 | 1.1 | B5 |
| 0.218 | 2 | 0.468 | B6 |
